How the values were obtained:
MS2 coat protein [1] = assay: apparent KD of MS2 coat protein; designed switch direction (-1 OFF switch, 1 ON switch): -1; higher = weaker reporter binding; conditions: Eterna round: R98
Description: (§1)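 RNA-MaP: designed FMN/MS2 RNA switches (84 nt design region) are transcribed on-chip within common flanks and titrated with SNAP-549-labelled MS2 coat protein (about 1-3000 nM) in 100 mM Tris pH 7.5, 80 mM KCl, 4 mM MgCl2, without or with 200 uM FMN. Median apparent KD per design; activation ratio = KD,OFF / KD,ON.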

MS2 coat protein [2] = assay: apparent KD of MS2 coat protein; higher = weaker reporter binding; conditions: Eterna round: R101
Description: as §1

## UUGCUCAAUUGGGCAGGGACCUCACAUGAGGAUCACCCAUGUCAGGAUAUCCUAGUUUGGACGUAGGAGAAGGGACGGAGUAUC [Usanat]
MS2 coat protein [1]; input ligand: FMN 200 uM
  apparent KD of MS2 coat protein: 250 nM
MS2 coat protein [1]; input ligand: none
  apparent KD of MS2 coat protein: 167 nM

## AGAUGACAAAGUCAUCUCGCUCUGACAUGAGGAUCACCCAUGUAGGAUAUAUUACUCAAAGAGUAAUAGAAGGACAUGUUUCUG [Ex NG2 #64]
MS2 coat protein [1]; input ligand: FMN 200 uM
  apparent KD of MS2 coat protein: 65.5 nM
MS2 coat protein [1]; input ligand: none
  apparent KD of MS2 coat protein: 36 nM

## CAGAUAAAAGUGAGGUCGUCGACAUGAGGAUCACCCAUGUACGAGGAUAUGUAAUAUACGGUAUAGCAGAAGGCGUAUGGGUGU [Edrageer]
MS2 coat protein [1]; input ligand: FMN 200 uM
  apparent KD of MS2 coat protein: 120 nM
MS2 coat protein [1]; input ligand: none
  apparent KD of MS2 coat protein: 30.5 nM

## ACAGGUCGUGAGAAGGAGAGUGGCACCGUCGAAAGACGGUGCAACUAGAAACCUAGAGGAUCACCCUAGGAUAUCACGACCUGA [#SharedSequence - IExNG2: 11] (puzzle (switch architecture): Inverted Exclusion NG 2)
MS2 coat protein [2]; input ligand: FMN 200 uM
  apparent KD of MS2 coat protein: 6.46 nM
MS2 coat protein [2]; input ligand: none
  apparent KD of MS2 coat protein: 6.32 nM

## AAUAAUUCUCAAGGAUAUCAGUGGCAAAGCCACUGAGAAGGUGAGGAUCACCCACCUACGUGACGCUGGAAACAGCGUCACGAA [#SharedSequence ExNG1 - 34] (puzzle (switch architecture): Exclusion NG 1)
MS2 coat protein [2]; input ligand: FMN 200 uM
  apparent KD of MS2 coat protein: 164 nM
MS2 coat protein [2]; input ligand: none
  apparent KD of MS2 coat protein: 30.5 nM

## CUUAGUUUGUAGAAGGGUGACAUGAGGAUCACCCAUGUGCGUAGCCUGAAAGACCAGGGUACGCCACAGGAUAUACAAAGUAAG [Onenisa] (puzzle (switch architecture): Inverted Same State NG 2)
MS2 coat protein [2]; input ligand: FMN 200 uM
  apparent KD of MS2 coat protein: 84.9 nM
MS2 coat protein [2]; input ligand: none
  apparent KD of MS2 coat protein: 57.4 nM

## UAUAUAUAGGCAGGAUAUACAUGUAUAUAUAAUUUAUUAUAUAUUAUUACAUGAGGAUCACCCAUGUAGAAGGGCCAUAUUAUA [LRO037_Exclusion NG 2]
MS2 coat protein [1]; input ligand: FMN 200 uM
  apparent KD of MS2 coat protein: 51.2 nM
MS2 coat protein [1]; input ligand: none
  apparent KD of MS2 coat protein: 30.1 nM

## GGUACUCAAAGAGUACCAAUACGAACAUGAGGAUCACCCAUGUAGGAUAUGCUACUCAAAGAGUAGCAGAAGGACAUGUGCCUA [OmeiMod 7 - Jieux - Exclusion NG 3]
MS2 coat protein [1]; input ligand: FMN 200 uM
  apparent KD of MS2 coat protein: 422 nM
MS2 coat protein [1]; input ligand: none
  apparent KD of MS2 coat protein: 38.7 nM

## GUCACGAAUGUAGGAUAUCGAGUGGAUAACACUCGAGAAGGACAUGAGGAUCACCCAUGUCAAAUGAAAGAUAAUAAACGUGAC [Exclsuion NG 1/3-B2]
MS2 coat protein [1]; input ligand: FMN 200 uM
  apparent KD of MS2 coat protein: 20.6 nM
MS2 coat protein [1]; input ligand: none
  apparent KD of MS2 coat protein: 15.8 nM

## CUGAAGUCUGACCCUCGAAACAUGAGGAUCACCCAUGUAGUCAGAAGGCGAUUGUGAGCAGGAAUCGAGGAUAUGAACUAGUUU [EternaBot1300] (puzzle (switch architecture): Inverted Exclusion NG 3)
MS2 coat protein [2]; input ligand: FMN 200 uM
  apparent KD of MS2 coat protein: 9.99 nM
